Columns and labels:
HLA-A*03:01 [1] = assay: IEDB peptide-MHC binding, purified MHC/competitive/fluorescence; ≥ and ≤ were set here for values at or beyond the usual limits of such assays
HLA-A*11:01 [2] = assay: as above
HLA-B*15:42 = assay: IEDB peptide-MHC binding, purified MHC/competitive/fluorescence; filed as Kd, often an IC50 or EC50 that approximates it; ≥ and ≤ were set here for values at or beyond the usual limits of such assays
HLA-B*45:06 = assay: as above
HLA-B*83:01 = assay: as above
HLA-B*40:01 = assay: IEDB peptide-MHC binding, purified MHC/direct/fluorescence; filed as Kd, often an IC50 or EC50 that approximates it; ≥ and ≤ were set here for values at or beyond the usual limits of such assays; conditions: source organism: Mycobacterium tuberculosis variant bovis
HLA-A*02:01 = assay: IEDB peptide-MHC binding, purified MHC/competitive/fluorescence; ≥ and ≤ were set here for values at or beyond the usual limits of such assays; conditions: source organism: Zaire ebolavirus
HLA-A*31:01 = assay: IEDB peptide-MHC binding, purified MHC/competitive/fluorescence; filed as Kd, often an IC50 or EC50 that approximates it; ≥ and ≤ were set here for values at or beyond the usual limits of such assays
HLA-A*03:01 [3] = assay: IEDB peptide-MHC binding, purified MHC/direct/fluorescence; filed as Kd, often an IC50 or EC50 that approximates it; ≥ and ≤ were set here for values at or beyond the usual limits of such assays
HLA-A*11:01 [4] = assay: as above
HLA-B*39:01 = assay: IEDB peptide-MHC binding, purified MHC/competitive/fluorescence; filed as Kd, often an IC50 or EC50 that approximates it; ≥ and ≤ were set here for values at or beyond the usual limits of such assays; conditions: source organism: Kurkino virus
HLA-B*18:01 = assay: as above; conditions: source organism: Kurkino virus
HLA-B*57:01 [5] = assay: as above; conditions: source organism: Kurkino virus
HLA-B*15:17 [6] = assay: as above; conditions: source organism: Kurkino virus
HLA-B*46:01 = assay: as above; conditions: source organism: Kurkino virus
HLA-A*69:01 = assay: as above; conditions: source organism: Kurkino virus
HLA-A*26:01 = assay: as above; conditions: source organism: Kurkino virus
HLA-B*51:01 = assay: as above; conditions: source organism: Kurkino virus
HLA-B*27:03 = assay: as above; conditions: source organism: Kurkino virus
HLA-A*02:19 = assay: IEDB peptide-MHC binding, purified MHC/direct/fluorescence; filed as Kd, often an IC50 or EC50 that approximates it; ≥ and ≤ were set here for values at or beyond the usual limits of such assays; conditions: source organism: Convict Creek 107 virus
HLA-A*02:12 = assay: as above; conditions: source organism: Convict Creek 107 virus
HLA-A*29:02 = assay: IEDB peptide-MHC binding, purified MHC/competitive/fluorescence; filed as Kd, often an IC50 or EC50 that approximates it; ≥ and ≤ were set here for values at or beyond the usual limits of such assays
HLA-B*57:01 [7] = assay: IEDB peptide-MHC binding, purified MHC/direct/fluorescence; filed as Kd, often an IC50 or EC50 that approximates it; ≥ and ≤ were set here for values at or beyond the usual limits of such assays
HLA-B*15:17 [8] = assay: as above
HLA-B*58:01 = assay: as above
[9] = source organism: Vaccinia virus WR
[10] = source organism: Mycobacterium tuberculosis variant bovis
[11] = source organism: Zaire ebolavirus
[12] = source organism: Mycobacterium tuberculosis
[13] = source organism: Vaccinia virus Copenhagen
[14] = source organism: West Nile virus
[15] = source organism: Yersinia pestis Nepal516
[16] = source organism: Yersinia pestis
[17] = source organism: Bacillus anthracis
[18] = source organism: Sudan ebolavirus

**Q.** Which results are given for KHVGLITCK?
**A.** IC50 (HLA-A*03:01 [1]; [9]): 47.2 µM; IC50 (HLA-A*11:01 [2]; [9]): ≥ 80 µM

**Q.** What does the source list for REAPYELNI?
**A.** Kd (HLA-B*15:42; [10]): ≥ 5 µM; Kd (HLA-B*45:06; [10]): ≥ 5 µM; Kd (HLA-B*83:01; [10]): ≥ 5 µM; Kd (HLA-B*40:01): 62.8 nM

**Q.** EMYRHILRS was tested. Which IC50 (HLA-A*03:01 [1]; [11]) did it give?
**A.** Its IC50 is ≥ 96.9 µM.

**Q.** And the IC50 (HLA-A*02:01)?
**A.** The IC50 was 8.88 µM.

**Q.** For ATTAAGPPK, which IC50 (HLA-A*03:01 [1]; [11]) is on record?
**A.** The IC50 was 6.3 µM.

**Q.** And the IC50 (HLA-A*11:01 [2]; [11])?
**A.** Its IC50 is 0.762 µM.

**Q.** And the IC50 (HLA-A*02:01)?
**A.** The IC50 was ≥ 354 µM.

**Q.** TTQSIHENK was tested. Which IC50 (HLA-A*11:01 [2]; source organism: Vaccinia virus) did it give?
**A.** Its IC50 is 6.04 µM.

**Q.** With AAMVLLLRK as the sequence, how does the Kd (HLA-A*31:01; source organism: Mycobacterium tuberculosis variant bovis BCG str. Pasteur 1173P2) read?
**A.** Its Kd is ≥ 20 µM.

**Q.** What about the Kd (HLA-A*03:01 [3]; [12]) of the same sequence?
**A.** Its Kd is 79.5 nM.

**Q.** And the Kd (HLA-A*11:01 [4]; [12])?
**A.** The Kd was ≤ 1 nM.

**Q.** How did the Kd (HLA-B*39:01) turn out when WFLYVSQQI was run?
**A.** Its Kd is ≥ 20 µM.

**Q.** What about the Kd (HLA-B*18:01) of the same sequence?
**A.** The Kd was ≥ 20 µM.

**Q.** And the Kd (HLA-B*57:01 [5])?
**A.** The Kd was ≥ 20 µM.

**Q.** What about the Kd (HLA-B*15:17 [6]) of the same sequence?
**A.** The Kd was ≥ 20 µM.

**Q.** What about the Kd (HLA-B*46:01) of the same sequence?
**A.** The Kd was ≥ 20 µM.

**Q.** And the Kd (HLA-A*69:01)?
**A.** Its Kd is ≥ 20 µM.

**Q.** And the Kd (HLA-A*26:01)?
**A.** The Kd was ≥ 20 µM.

**Q.** And the Kd (HLA-B*51:01)?
**A.** The Kd was ≥ 20 µM.

**Q.** What about the Kd (HLA-B*27:03) of the same sequence?
**A.** Its Kd is ≥ 20 µM.

**Q.** What about the Kd (HLA-A*02:19) of the same sequence?
**A.** Its Kd is ≥ 20 µM.

**Q.** And the Kd (HLA-A*03:01 [3]; source organism: Convict Creek 107 virus)?
**A.** The Kd was ≥ 20000 nM.

**Q.** What about the Kd (HLA-A*02:12) of the same sequence?
**A.** The Kd was ≥ 20 µM.

**Q.** How did the Kd (HLA-A*29:02; source organism: Listeria monocytogenes EGD-e) turn out when YYFDIYNKQ was run?
**A.** The Kd was 73 nM.

**Q.** What does the source list for TKLYKNKSK?
**A.** IC50 (HLA-A*03:01 [1]; [13]): 44.3 µM; IC50 (HLA-A*11:01 [2]; [13]): 57.5 µM

**Q.** How did the IC50 (HLA-A*11:01 [2]; [13]) turn out when TITEKTFKD was run?
**A.** The IC50 was 36.5 µM.

**Q.** With YFNDPALGH as the sequence, how does the Kd (HLA-A*29:02; source organism: Giardia lamblia ATCC 50803) read?
**A.** Its Kd is 114 nM.

**Q.** With ITYTDVLRY as the sequence, how does the Kd (HLA-A*31:01; [14]) read?
**A.** The Kd was ≥ 20 µM.

**Q.** And the Kd (HLA-A*03:01 [3]; [14])?
**A.** The Kd was 144 nM.

**Q.** What about the Kd (HLA-B*57:01 [7]; [14]) of the same sequence?
**A.** The Kd was 105 nM.

**Q.** What about the Kd (HLA-A*11:01 [4]; [14]) of the same sequence?
**A.** Its Kd is 14.8 nM.

**Q.** And the Kd (HLA-B*15:17 [8]; [14])?
**A.** Its Kd is ≤ 1 nM.

**Q.** And the Kd (HLA-B*58:01; [14])?
**A.** The Kd was 38 nM.

**Q.** For GSYFSGFYK, which Kd (HLA-B*15:42; [15]) is on record?
**A.** The Kd was ≥ 5 µM.

**Q.** And the Kd (HLA-B*45:06; [15])?
**A.** The Kd was ≥ 5 µM.

**Q.** What about the Kd (HLA-B*83:01; [15]) of the same sequence?
**A.** Its Kd is ≥ 5 µM.

**Q.** And the Kd (HLA-A*31:01; [15])?
**A.** Its Kd is ≤ 0.001 µM.

**Q.** What about the Kd (HLA-A*03:01 [3]; [16]) of the same sequence?
**A.** Its Kd is 13.7 nM.

**Q.** And the Kd (HLA-A*11:01 [4]; [16])?
**A.** Its Kd is ≤ 1 nM.

**Q.** Which results are given for CSTLPFHTW?
**A.** Kd (HLA-B*57:01 [7]; [17]): 7.1 nM; Kd (HLA-B*15:17 [8]; [17]): 1.2 nM; Kd (HLA-B*58:01; [17]): 3.8 nM

**Q.** Which IC50 (HLA-A*03:01 [1]; [18]) does the source give for VIAFLILAK here?
**A.** Its IC50 is 1.69 µM.

**Q.** And the IC50 (HLA-A*11:01 [2]; [18])?
**A.** The IC50 was 0.564 µM.

Reference: the Immune Epitope Database (IEDB)
